The results in this text go back to patent US20180155451A1 (published 2018).

In the test the target is T1, FcγRIIb extracellular domain with C-terminal His tag (human, UniProt P31994 43-217).
T1 construct: extracellular domain; Expressed in FreeStyle293 cells; used as analyte in Biacore; also called FcgRIIb; 2b; not shown: C-terminal His tag
T1 sequence (looked up): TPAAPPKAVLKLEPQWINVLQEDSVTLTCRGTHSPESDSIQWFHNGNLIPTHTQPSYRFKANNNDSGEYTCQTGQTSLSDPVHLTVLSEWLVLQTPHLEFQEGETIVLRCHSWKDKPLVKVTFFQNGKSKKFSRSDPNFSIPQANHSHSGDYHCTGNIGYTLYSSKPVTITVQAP
In words: SPR (Biacore), antibody captured on antigen-peptide chip, FcgRIIb as analyte; binding relative to GpH7-B3/GpL16-k0 (HoCon Ab) = 100. For orientation: Surface plasmon resonance follows binding to a sensor surface in real time, without labels.

B1: GpH7-B3 variant L328_14T/GpL16-k0 (Ho Ab) (antibody, human IgG1, kappa)
heavy: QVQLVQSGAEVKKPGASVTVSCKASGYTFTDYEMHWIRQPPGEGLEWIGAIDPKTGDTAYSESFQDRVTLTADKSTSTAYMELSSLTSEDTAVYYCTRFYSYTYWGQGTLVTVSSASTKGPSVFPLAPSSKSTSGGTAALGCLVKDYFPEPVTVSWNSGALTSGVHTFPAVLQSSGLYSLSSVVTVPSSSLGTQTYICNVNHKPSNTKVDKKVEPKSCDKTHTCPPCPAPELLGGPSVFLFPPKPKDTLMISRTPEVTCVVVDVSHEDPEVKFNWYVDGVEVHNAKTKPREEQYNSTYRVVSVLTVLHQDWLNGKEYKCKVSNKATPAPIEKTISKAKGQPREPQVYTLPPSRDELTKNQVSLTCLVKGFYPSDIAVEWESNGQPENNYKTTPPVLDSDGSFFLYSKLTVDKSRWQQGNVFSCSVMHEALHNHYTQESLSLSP
light: DIVMTQSPLSLPVTPGEPASISCQASESLVHSNRNTYLHWYLQKPGQSPQLLIYKVSNRFSGVPDRFSGSGSGTDFTLKISRVEAEDVGVYYCSQNTHVPPTFGQGTKVEIERTVAAPSVFIFPPSDEQLKSGTASVVCLLNNFYPREAKVQWKVDNALQSGNSQESVTEQDSKDSTYSLSSTLTLSKADYEKHKVYACEVTHQGLSSPVTKSFNRGEC
notes: Substitution in both H chains; position in EU numbering; also called L328T homodimerized antibody
Take B1: the Ho/Con_2b is 146 % of control.

B2: GpH7-B3 variant S239_01G/GpL16-k0 (Ho Ab) (antibody, human IgG1, kappa)
heavy: not shown
light: DIVMTQSPLSLPVTPGEPASISCQASESLVHSNRNTYLHWYLQKPGQSPQLLIYKVSNRFSGVPDRFSGSGSGTDFTLKISRVEAEDVGVYYCSQNTHVPPTFGQGTKVEIERTVAAPSVFIFPPSDEQLKSGTASVVCLLNNFYPREAKVQWKVDNALQSGNSQESVTEQDSKDSTYSLSSTLTLSKADYEKHKVYACEVTHQGLSSPVTKSFNRGEC
notes: Substitution in both H chains; position in EU numbering; also called S239G homodimerized antibody
Consider B2, for which the Ho/Con_2b was 174 % of control.

B3: GpH7-B3 variant L328_15Y/GpL16-k0 (Ho Ab) (antibody, human IgG1, kappa)
heavy: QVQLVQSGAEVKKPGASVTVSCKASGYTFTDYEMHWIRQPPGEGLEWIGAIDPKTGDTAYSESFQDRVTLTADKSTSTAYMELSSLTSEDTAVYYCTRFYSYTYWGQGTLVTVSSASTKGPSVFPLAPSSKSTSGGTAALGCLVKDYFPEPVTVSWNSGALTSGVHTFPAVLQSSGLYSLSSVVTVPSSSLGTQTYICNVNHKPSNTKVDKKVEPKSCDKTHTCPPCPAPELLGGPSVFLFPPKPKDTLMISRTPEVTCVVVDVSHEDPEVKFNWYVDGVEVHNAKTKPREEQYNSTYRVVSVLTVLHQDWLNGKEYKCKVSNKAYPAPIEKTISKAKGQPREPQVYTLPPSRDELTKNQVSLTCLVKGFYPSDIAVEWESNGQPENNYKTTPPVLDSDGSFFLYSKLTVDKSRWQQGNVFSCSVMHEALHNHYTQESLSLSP
light: DIVMTQSPLSLPVTPGEPASISCQASESLVHSNRNTYLHWYLQKPGQSPQLLIYKVSNRFSGVPDRFSGSGSGTDFTLKISRVEAEDVGVYYCSQNTHVPPTFGQGTKVEIERTVAAPSVFIFPPSDEQLKSGTASVVCLLNNFYPREAKVQWKVDNALQSGNSQESVTEQDSKDSTYSLSSTLTLSKADYEKHKVYACEVTHQGLSSPVTKSFNRGEC
notes: Substitution in both H chains; position in EU numbering; also called L328Y homodimerized antibody
For B3, the Ho/Con_2b was 272 % of control.

B4: GpH7-B3 variant P271_08L/GpL16-k0 (Ho Ab) (antibody, human IgG1, kappa)
heavy: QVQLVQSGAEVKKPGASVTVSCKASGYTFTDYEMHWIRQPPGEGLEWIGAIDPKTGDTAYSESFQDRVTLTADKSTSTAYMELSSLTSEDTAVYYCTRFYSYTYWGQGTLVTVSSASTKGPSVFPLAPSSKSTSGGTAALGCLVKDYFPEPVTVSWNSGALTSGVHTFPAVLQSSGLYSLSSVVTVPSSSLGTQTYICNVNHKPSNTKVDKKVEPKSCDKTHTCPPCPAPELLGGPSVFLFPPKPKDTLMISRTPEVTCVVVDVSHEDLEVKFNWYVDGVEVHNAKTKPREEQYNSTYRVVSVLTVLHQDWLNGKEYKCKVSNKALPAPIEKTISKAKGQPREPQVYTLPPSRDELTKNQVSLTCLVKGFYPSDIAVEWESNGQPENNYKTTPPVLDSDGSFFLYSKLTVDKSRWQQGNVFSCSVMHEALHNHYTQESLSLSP
light: DIVMTQSPLSLPVTPGEPASISCQASESLVHSNRNTYLHWYLQKPGQSPQLLIYKVSNRFSGVPDRFSGSGSGTDFTLKISRVEAEDVGVYYCSQNTHVPPTFGQGTKVEIERTVAAPSVFIFPPSDEQLKSGTASVVCLLNNFYPREAKVQWKVDNALQSGNSQESVTEQDSKDSTYSLSSTLTLSKADYEKHKVYACEVTHQGLSSPVTKSFNRGEC
notes: Substitution in both H chains; position in EU numbering; also called P271L homodimerized antibody
As to B4, the Ho/Con_2b is 113 % of control.

B5: GpH7-B3 variant L328_19Q/GpL16-k0 (Ho Ab) (antibody, human IgG1, kappa)
heavy: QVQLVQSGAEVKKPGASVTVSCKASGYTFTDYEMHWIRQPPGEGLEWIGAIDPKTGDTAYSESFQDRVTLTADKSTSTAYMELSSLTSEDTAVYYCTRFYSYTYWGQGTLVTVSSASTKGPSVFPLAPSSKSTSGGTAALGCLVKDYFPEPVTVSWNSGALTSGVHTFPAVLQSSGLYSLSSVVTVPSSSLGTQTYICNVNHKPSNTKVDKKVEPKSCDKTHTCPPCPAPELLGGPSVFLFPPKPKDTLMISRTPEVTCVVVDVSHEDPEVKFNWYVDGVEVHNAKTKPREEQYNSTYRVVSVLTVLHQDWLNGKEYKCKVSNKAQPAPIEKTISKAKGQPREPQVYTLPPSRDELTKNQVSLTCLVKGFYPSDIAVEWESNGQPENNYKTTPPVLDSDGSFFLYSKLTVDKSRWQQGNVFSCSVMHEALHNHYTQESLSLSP
light: DIVMTQSPLSLPVTPGEPASISCQASESLVHSNRNTYLHWYLQKPGQSPQLLIYKVSNRFSGVPDRFSGSGSGTDFTLKISRVEAEDVGVYYCSQNTHVPPTFGQGTKVEIERTVAAPSVFIFPPSDEQLKSGTASVVCLLNNFYPREAKVQWKVDNALQSGNSQESVTEQDSKDSTYSLSSTLTLSKADYEKHKVYACEVTHQGLSSPVTKSFNRGEC
notes: Substitution in both H chains; position in EU numbering; also called L328Q homodimerized antibody
With B5, the Ho/Con_2b was 111 % of control.

B6: GpH7-B3 variant P271_01G/GpL16-k0 (Ho Ab) (antibody, human IgG1, kappa)
heavy: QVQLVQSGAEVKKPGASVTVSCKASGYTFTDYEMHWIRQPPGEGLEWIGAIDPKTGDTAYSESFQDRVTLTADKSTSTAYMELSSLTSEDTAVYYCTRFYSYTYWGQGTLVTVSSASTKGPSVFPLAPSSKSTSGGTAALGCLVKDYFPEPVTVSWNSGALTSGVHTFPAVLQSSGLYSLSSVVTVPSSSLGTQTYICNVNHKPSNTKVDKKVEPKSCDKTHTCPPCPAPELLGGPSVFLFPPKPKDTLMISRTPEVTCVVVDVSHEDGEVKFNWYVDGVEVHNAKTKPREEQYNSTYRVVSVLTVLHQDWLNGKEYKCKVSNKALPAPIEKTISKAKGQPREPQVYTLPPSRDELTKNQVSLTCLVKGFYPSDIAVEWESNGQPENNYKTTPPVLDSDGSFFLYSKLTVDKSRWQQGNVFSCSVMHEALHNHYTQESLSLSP
light: DIVMTQSPLSLPVTPGEPASISCQASESLVHSNRNTYLHWYLQKPGQSPQLLIYKVSNRFSGVPDRFSGSGSGTDFTLKISRVEAEDVGVYYCSQNTHVPPTFGQGTKVEIERTVAAPSVFIFPPSDEQLKSGTASVVCLLNNFYPREAKVQWKVDNALQSGNSQESVTEQDSKDSTYSLSSTLTLSKADYEKHKVYACEVTHQGLSSPVTKSFNRGEC
notes: Substitution in both H chains; position in EU numbering; also called P271G homodimerized antibody
Turning to B6, the Ho/Con_2b is 229 % of control.

B7: GpH7-B3 variant P331_04F/GpL16-k0 (Ho Ab) (antibody, human IgG1, kappa)
heavy: not shown
light: DIVMTQSPLSLPVTPGEPASISCQASESLVHSNRNTYLHWYLQKPGQSPQLLIYKVSNRFSGVPDRFSGSGSGTDFTLKISRVEAEDVGVYYCSQNTHVPPTFGQGTKVEIERTVAAPSVFIFPPSDEQLKSGTASVVCLLNNFYPREAKVQWKVDNALQSGNSQESVTEQDSKDSTYSLSSTLTLSKADYEKHKVYACEVTHQGLSSPVTKSFNRGEC
notes: Substitution in both H chains; position in EU numbering; also called P331F homodimerized antibody
B7: the Ho/Con_2b is 113 % of control.

B8: GpH7-B3 variant P238_08L/GpL16-k0 (Ho Ab) (antibody, human IgG1, kappa)
heavy: not shown
light: DIVMTQSPLSLPVTPGEPASISCQASESLVHSNRNTYLHWYLQKPGQSPQLLIYKVSNRFSGVPDRFSGSGSGTDFTLKISRVEAEDVGVYYCSQNTHVPPTFGQGTKVEIERTVAAPSVFIFPPSDEQLKSGTASVVCLLNNFYPREAKVQWKVDNALQSGNSQESVTEQDSKDSTYSLSSTLTLSKADYEKHKVYACEVTHQGLSSPVTKSFNRGEC
notes: Substitution in both H chains; position in EU numbering; also called P238L homodimerized antibody
On to B8, for which the Ho/Con_2b is 235 % of control.

B9: GpH7-B3 variant S267_08L/GpL16-k0 (Ho Ab) (antibody, human IgG1, kappa)
heavy: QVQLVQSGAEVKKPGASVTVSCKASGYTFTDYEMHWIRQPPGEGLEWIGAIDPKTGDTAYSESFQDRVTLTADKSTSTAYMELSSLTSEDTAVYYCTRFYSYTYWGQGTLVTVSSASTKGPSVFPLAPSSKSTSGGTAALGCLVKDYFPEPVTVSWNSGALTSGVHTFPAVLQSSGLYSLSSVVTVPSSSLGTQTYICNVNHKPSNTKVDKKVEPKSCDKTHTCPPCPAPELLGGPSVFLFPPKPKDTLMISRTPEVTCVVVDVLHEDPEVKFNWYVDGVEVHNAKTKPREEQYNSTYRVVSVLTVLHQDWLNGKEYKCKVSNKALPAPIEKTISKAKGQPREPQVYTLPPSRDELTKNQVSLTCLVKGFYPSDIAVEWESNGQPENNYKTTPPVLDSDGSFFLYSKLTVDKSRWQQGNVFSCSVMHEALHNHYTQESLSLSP
light: DIVMTQSPLSLPVTPGEPASISCQASESLVHSNRNTYLHWYLQKPGQSPQLLIYKVSNRFSGVPDRFSGSGSGTDFTLKISRVEAEDVGVYYCSQNTHVPPTFGQGTKVEIERTVAAPSVFIFPPSDEQLKSGTASVVCLLNNFYPREAKVQWKVDNALQSGNSQESVTEQDSKDSTYSLSSTLTLSKADYEKHKVYACEVTHQGLSSPVTKSFNRGEC
notes: Substitution in both H chains; position in EU numbering; also called S267L homodimerized antibody
B9: the Ho/Con_2b was 109 % of control.

B10: GpH7-B3 variant S239_08L/GpL16-k0 (Ho Ab) (antibody, human IgG1, kappa)
heavy: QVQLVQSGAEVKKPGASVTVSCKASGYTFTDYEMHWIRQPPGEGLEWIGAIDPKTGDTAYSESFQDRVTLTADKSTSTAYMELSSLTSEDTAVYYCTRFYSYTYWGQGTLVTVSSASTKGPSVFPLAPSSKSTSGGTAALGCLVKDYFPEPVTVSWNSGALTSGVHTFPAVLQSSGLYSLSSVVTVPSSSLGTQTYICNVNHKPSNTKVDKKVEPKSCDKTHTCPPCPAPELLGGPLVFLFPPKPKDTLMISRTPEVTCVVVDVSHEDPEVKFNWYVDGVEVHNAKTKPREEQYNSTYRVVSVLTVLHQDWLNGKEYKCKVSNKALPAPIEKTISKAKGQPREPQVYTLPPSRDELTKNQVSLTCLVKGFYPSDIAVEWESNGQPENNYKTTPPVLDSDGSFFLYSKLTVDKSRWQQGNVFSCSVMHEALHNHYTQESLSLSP
light: DIVMTQSPLSLPVTPGEPASISCQASESLVHSNRNTYLHWYLQKPGQSPQLLIYKVSNRFSGVPDRFSGSGSGTDFTLKISRVEAEDVGVYYCSQNTHVPPTFGQGTKVEIERTVAAPSVFIFPPSDEQLKSGTASVVCLLNNFYPREAKVQWKVDNALQSGNSQESVTEQDSKDSTYSLSSTLTLSKADYEKHKVYACEVTHQGLSSPVTKSFNRGEC
notes: Substitution in both H chains; position in EU numbering; also called S239L homodimerized antibody
On to B10, for which the Ho/Con_2b was 142 % of control.

B11: GpH7-B3 variant S239_09D/GpL16-k0 (Ho Ab) (antibody, human IgG1, kappa)
heavy: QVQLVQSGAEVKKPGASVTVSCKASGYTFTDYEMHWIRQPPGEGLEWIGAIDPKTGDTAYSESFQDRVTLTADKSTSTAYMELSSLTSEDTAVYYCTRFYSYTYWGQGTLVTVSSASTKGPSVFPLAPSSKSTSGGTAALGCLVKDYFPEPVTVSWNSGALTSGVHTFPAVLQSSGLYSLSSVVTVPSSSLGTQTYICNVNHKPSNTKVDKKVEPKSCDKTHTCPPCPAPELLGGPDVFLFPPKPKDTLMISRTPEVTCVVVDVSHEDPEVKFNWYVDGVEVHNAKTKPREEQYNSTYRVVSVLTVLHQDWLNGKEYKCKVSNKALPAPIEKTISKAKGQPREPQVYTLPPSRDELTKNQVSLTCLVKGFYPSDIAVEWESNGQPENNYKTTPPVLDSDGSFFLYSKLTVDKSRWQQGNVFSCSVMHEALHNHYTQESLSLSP
light: DIVMTQSPLSLPVTPGEPASISCQASESLVHSNRNTYLHWYLQKPGQSPQLLIYKVSNRFSGVPDRFSGSGSGTDFTLKISRVEAEDVGVYYCSQNTHVPPTFGQGTKVEIERTVAAPSVFIFPPSDEQLKSGTASVVCLLNNFYPREAKVQWKVDNALQSGNSQESVTEQDSKDSTYSLSSTLTLSKADYEKHKVYACEVTHQGLSSPVTKSFNRGEC
notes: Substitution in both H chains; position in EU numbering; also called S239D homodimerized antibody
On to B11, for which the Ho/Con_2b is 224 % of control.

B12: GpH7-B3 variant S239_07I/GpL16-k0 (Ho Ab) (antibody, human IgG1, kappa)
heavy: not shown
light: DIVMTQSPLSLPVTPGEPASISCQASESLVHSNRNTYLHWYLQKPGQSPQLLIYKVSNRFSGVPDRFSGSGSGTDFTLKISRVEAEDVGVYYCSQNTHVPPTFGQGTKVEIERTVAAPSVFIFPPSDEQLKSGTASVVCLLNNFYPREAKVQWKVDNALQSGNSQESVTEQDSKDSTYSLSSTLTLSKADYEKHKVYACEVTHQGLSSPVTKSFNRGEC
notes: Substitution in both H chains; position in EU numbering; also called S239I homodimerized antibody
In the case of B12, the Ho/Con_2b was 108 % of control.

B13: GpH7-B3 variant S267_02A/GpL16-k0 (Ho Ab) (antibody, human IgG1, kappa)
heavy: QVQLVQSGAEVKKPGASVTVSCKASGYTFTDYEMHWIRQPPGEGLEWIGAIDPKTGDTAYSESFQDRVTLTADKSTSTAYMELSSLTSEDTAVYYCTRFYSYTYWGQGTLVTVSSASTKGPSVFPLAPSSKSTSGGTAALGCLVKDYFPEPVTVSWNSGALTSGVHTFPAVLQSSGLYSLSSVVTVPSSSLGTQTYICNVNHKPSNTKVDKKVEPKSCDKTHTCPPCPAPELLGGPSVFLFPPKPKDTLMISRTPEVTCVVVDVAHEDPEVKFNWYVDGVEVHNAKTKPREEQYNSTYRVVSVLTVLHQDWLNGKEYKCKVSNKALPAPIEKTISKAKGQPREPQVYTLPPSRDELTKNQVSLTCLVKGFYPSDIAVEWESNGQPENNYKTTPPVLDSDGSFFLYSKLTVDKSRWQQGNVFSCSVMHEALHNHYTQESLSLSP
light: DIVMTQSPLSLPVTPGEPASISCQASESLVHSNRNTYLHWYLQKPGQSPQLLIYKVSNRFSGVPDRFSGSGSGTDFTLKISRVEAEDVGVYYCSQNTHVPPTFGQGTKVEIERTVAAPSVFIFPPSDEQLKSGTASVVCLLNNFYPREAKVQWKVDNALQSGNSQESVTEQDSKDSTYSLSSTLTLSKADYEKHKVYACEVTHQGLSSPVTKSFNRGEC
notes: Substitution in both H chains; position in EU numbering; also called S267A homodimerized antibody
Consider B13, for which the Ho/Con_2b is 274 % of control.

B14: GpH7-B3 variant S267_07I/GpL16-k0 (Ho Ab) (antibody, human IgG1, kappa)
heavy: not shown
light: DIVMTQSPLSLPVTPGEPASISCQASESLVHSNRNTYLHWYLQKPGQSPQLLIYKVSNRFSGVPDRFSGSGSGTDFTLKISRVEAEDVGVYYCSQNTHVPPTFGQGTKVEIERTVAAPSVFIFPPSDEQLKSGTASVVCLLNNFYPREAKVQWKVDNALQSGNSQESVTEQDSKDSTYSLSSTLTLSKADYEKHKVYACEVTHQGLSSPVTKSFNRGEC
notes: Substitution in both H chains; position in EU numbering; also called S267I homodimerized antibody
For B14, the Ho/Con_2b is 213 % of control.

B15: GpH7-B3 variant S267_03V/GpL16-k0 (Ho Ab) (antibody, human IgG1, kappa)
heavy: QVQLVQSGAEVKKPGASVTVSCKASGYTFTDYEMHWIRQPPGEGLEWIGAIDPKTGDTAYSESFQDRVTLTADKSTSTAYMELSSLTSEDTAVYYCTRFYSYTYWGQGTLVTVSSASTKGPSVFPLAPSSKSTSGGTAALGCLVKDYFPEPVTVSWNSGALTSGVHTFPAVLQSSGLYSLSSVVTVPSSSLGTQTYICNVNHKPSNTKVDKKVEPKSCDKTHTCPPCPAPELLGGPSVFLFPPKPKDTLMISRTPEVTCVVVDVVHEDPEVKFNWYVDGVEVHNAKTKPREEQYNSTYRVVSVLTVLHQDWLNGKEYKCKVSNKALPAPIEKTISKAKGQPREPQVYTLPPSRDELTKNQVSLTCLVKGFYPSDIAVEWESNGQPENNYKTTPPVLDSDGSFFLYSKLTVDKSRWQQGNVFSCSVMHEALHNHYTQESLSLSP
light: DIVMTQSPLSLPVTPGEPASISCQASESLVHSNRNTYLHWYLQKPGQSPQLLIYKVSNRFSGVPDRFSGSGSGTDFTLKISRVEAEDVGVYYCSQNTHVPPTFGQGTKVEIERTVAAPSVFIFPPSDEQLKSGTASVVCLLNNFYPREAKVQWKVDNALQSGNSQESVTEQDSKDSTYSLSSTLTLSKADYEKHKVYACEVTHQGLSSPVTKSFNRGEC
notes: Substitution in both H chains; position in EU numbering; also called S267V homodimerized antibody
Consider B15, for which the Ho/Con_2b was 206 % of control.

B16: GpH7-B3 variant S239_18N/GpL16-k0 (Ho Ab) (antibody, human IgG1, kappa)
heavy: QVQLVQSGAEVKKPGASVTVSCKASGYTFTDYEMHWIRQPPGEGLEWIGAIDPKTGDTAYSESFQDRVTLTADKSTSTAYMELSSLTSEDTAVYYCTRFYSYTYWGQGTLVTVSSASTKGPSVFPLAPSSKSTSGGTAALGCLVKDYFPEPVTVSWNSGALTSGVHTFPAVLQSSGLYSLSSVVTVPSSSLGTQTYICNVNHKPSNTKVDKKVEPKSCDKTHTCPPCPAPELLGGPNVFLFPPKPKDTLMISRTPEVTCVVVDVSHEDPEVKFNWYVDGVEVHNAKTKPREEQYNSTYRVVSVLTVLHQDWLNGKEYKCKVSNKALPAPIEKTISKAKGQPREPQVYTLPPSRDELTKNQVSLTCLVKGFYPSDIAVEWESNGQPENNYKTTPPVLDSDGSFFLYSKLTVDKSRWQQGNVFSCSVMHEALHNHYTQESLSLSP
light: DIVMTQSPLSLPVTPGEPASISCQASESLVHSNRNTYLHWYLQKPGQSPQLLIYKVSNRFSGVPDRFSGSGSGTDFTLKISRVEAEDVGVYYCSQNTHVPPTFGQGTKVEIERTVAAPSVFIFPPSDEQLKSGTASVVCLLNNFYPREAKVQWKVDNALQSGNSQESVTEQDSKDSTYSLSSTLTLSKADYEKHKVYACEVTHQGLSSPVTKSFNRGEC
notes: Substitution in both H chains; position in EU numbering; also called S239N homodimerized antibody
B16: the Ho/Con_2b was 125 % of control.
